B1: Fab m336 (antigen-binding fragment of antibody m336, prepared by Lys-C digestion) (Fab, V domains shown)
VH: QVQLVQSGAEVKKPGSSVKVSCKASGGTFSSYAISWVRQAPGQGLEWMGGIIPIFGTASYAQKFQGRVTITADKSTSTAYMELSSLRSEDTAVYYCARVGYCSSTSCNRGAFDIWGQGTMVTVSS
VL: DIQLTQSPSSLSASVGDRVTITCRASQGIRNDLGWYQQKPGKAPKLLIYAASSLQSGVPSRFSGSGSGTDFTLTISSLQPEDFATYYCQQLNSYPLTFGGGTKVEIK
notes: also called m336 Fab
B2: IgG1 m336 (antibody, V domains shown)
VH: QVQLVQSGAEVKKPGSSVKVSCKASGGTFSSYAISWVRQAPGQGLEWMGGIIPIFGTASYAQKFQGRVTITADKSTSTAYMELSSLRSEDTAVYYCARVGYCSSTSCNRGAFDIWGQGTMVTVSS
VL: DIQLTQSPSSLSASVGDRVTITCRASQGIRNDLGWYQQKPGKAPKLLIYAASSLQSGVPSRFSGSGSGTDFTLTISSLQPEDFATYYCQQLNSYPLTFGGGTKVEIK
notes: IgG1; also called wild-type m336; copies: 2 + 2
B3: Fab m336 (from the m336 Fab-expressing plasmid), wild type (Fab, V domains shown)
VH: QVQLVQSGAEVKKPGSSVKVSCKASGGTFSSYAISWVRQAPGQGLEWMGGIIPIFGTASYAQKFQGRVTITADKSTSTAYMELSSLRSEDTAVYYCARVGYCSSTSCNRGAFDIWGQGTMVTVSS
VL: DIQLTQSPSSLSASVGDRVTITCRASQGIRNDLGWYQQKPGKAPKLLIYAASSLQSGVPSRFSGSGSGTDFTLTISSLQPEDFATYYCQQLNSYPLTFGGGTKVEIK
notes: also called wild-type m336

Assays:
[1] = molecular target: T1, MERS-CoV Eng1 receptor-binding domain (RBD) (MERS-CoV Eng1, UniProt K9N5Q8); assay: crystal structure; details: both partners purified
T1 construct: source: GnTi-/- cells, purified (Ni-NTA, size exclusion chromatography in 1x PBS)
T1 sequence (K9N5Q8 367-601): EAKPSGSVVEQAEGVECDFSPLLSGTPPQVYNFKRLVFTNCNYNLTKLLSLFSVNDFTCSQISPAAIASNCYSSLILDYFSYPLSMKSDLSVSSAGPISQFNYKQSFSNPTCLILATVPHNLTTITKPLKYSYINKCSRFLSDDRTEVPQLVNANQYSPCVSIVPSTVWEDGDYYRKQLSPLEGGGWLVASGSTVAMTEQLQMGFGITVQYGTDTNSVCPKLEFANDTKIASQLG

[2] = molecular target: T2, recombinant MERS-CoV S1 protein (MERS-CoV, isolate EMC/2012 (strain of …, UniProt K0BRG7)); assay: ELISA; details: both partners purified
T2 construct: source: bought: Sino Biological Inc

Row | Binder | binding result [1] | binding result [2]
1 | B1 | binds | –
2 | B2 | – | binds
3 | B3 | – | binds

— publication PMC4571279 (Nature Communications, 2015)
